Experimental data: patent US20170100490A1, “Prodrug Comprising a Drug Linker Conjugate” (Ascendis Pharma A/S, priority 2008, published 2017)

Assays:
[1] = physchem; settings: buffer A (phosphate buffer), pH 7.4
[2] = human, in vivo; cited from earlier work

Compound: CCCCCCCCCCCC(=O)NC(CCCCNC(=O)CCOCCOCCOCCOCCOCCOCCOCCOCCOCCOCCOCCOCCNC(=O)CCN1C(=O)CC(SCCNC(=O)CN2CCN(CCNC(=O)[C@@H]3CCCC[C@@H]3C(=O)N3CCN(C4=Nc5ccccc5Oc5ccc(Cl)cc54)CC3)CC2)C1=O)C(N)=O (some centres unmarked) [Compound 5]
- half-life [1]: 1320 min

Compound: Exendin-4: GLP-1 receptor agonist peptide; high potency agonist at the glucagon-like peptide 1-(7-36)-amide receptor
- Plasma half-life [2]: 26 min
